In patent publication US6495137 one finds percent bound, Ka and amount required for 50% competition data, which are given here for one molecule.

Experiment [1] concerns the target bovine submaxillary mucin (BSM), TAG-72-positive (bovine). The experiment can be described thus: radiolabeled antibody bound to BSM beads.
The target is the same in experiment [2]. The experiment can be described thus: relative affinity constant, competition RIA on BSM, Scatchard analysis.
Experiment [3] shares this target. The experiment can be described thus: competition RIA, 125I-labeled nCC49 as competitor, BSM as target antigen. More on the design: unit not given here.

Several values for one entry are separate records, joined by “and”; a condition that tells them apart may be missing. Equal entries are not always repeated.

B1: HuCC49* humanized CC49 monoclonal antibody (antibody, V domains shown)
VH: QVQLVQSGAEVVKPGASVKISCKASGYTFTDHAIHWVKQNPGQRLEWIGYFSPGNDDFKYNERFKGKATLTADTSASTAYVELSSLRSEDTAVYFCTRSLNMAYWGQGTLVTVSS
VL: DIVMSQSPDSLAVSLGERVTLNCKSSQSLLYSGNQKNYLAWYQQKPGQSPKLLIYWASARESGVPDRFSGSGSGTDFTLTISSVQAEDVAVYYCQQYYSYPLTFGAGTKLELK
Take B1: the percent bound in experiment [1] is > 85% and 85%. Also, in experiment [2], the Ka was determined as 6e+07 M⁻¹. The molecule further displayed an amount required for 50% competition in experiment [3] of 45.
